Measured values published in US10941208B2, “Anti-MUC16 antibodies” (Regeneron Pharmaceuticals, Inc., priority 2016, dated 2021).
Where a chain is given by its changes, count along the chain named.

B1: H1H8755P: anti-MUC16 antibody, human IgG1 Fc; HCVR/LCVR SEQ ID NOs: 2/10 (antibody, V domains shown)
VH: EVQLVESGGGLVQPGRSLRLSCAASGFTFNDYAMHWVRQSPGKGLEWVSGIDWNGGSIDYADSVKGRFTISRDTAKNSLYLQMNSLKVEDTALYYCAKDIGHWNYIGGMDVWGQGTTVTVSS
VL: DIQMTQSPSSLSASVGDRVTITCRASQSINIYLNWYQQKPGKAPKFLIYAASSLQTGVPSRFSGSGSGTDFTLTISSLEPEDFATYYCQHSYSTPPITFGQGTRLEIK
B2: H2M7135N: anti-MUC16 hybridoma antibody, mIgG2; HCVR/LCVR SEQ ID NOs: 298/306 (antibody, V domains shown)
VH: EVQLVESGGGLVQAGGSLRLSCAASGFTFSYHEMNWVRQAPGKGLEWVSYIGSRGTTKHYADPVKGRFTISRDNAKNSLYLQMNSLRAEDTAVYYCASEVGSILGYSMDVWGQGTTVTVSS
VL: DIQMTQSPSSLSASVGDRVTITCRASQSVSRYLNWCQQKPGKAPKLLTYAASSLQSGVPSRFSGSGSGTDFTLTISSLQPEDFAAYFCQQSYSTPPITFGQGTRLEIK
B3: H1H8783P: anti-MUC16 antibody, human IgG1 Fc; HCVR/LCVR SEQ ID NOs: 50/58 (antibody, V domains shown)
VH: QVQLVESGGGVVQPGRSLRLSCAASGFTFSDHAMHWVRQAPGKGLEWVAVISYHGTDKQYGDSVKGRFTISRDNSKNALYLQMNSLRPEDTAMYYCAKDGYDFWNAYSLFDYWGQGTLVTVSS
VL: B1 VL with N30S, I31N, F46L, A50T, Q55L, T56S, E79Q, H90Q
B4: H1H8770P: anti-MUC16 antibody, human IgG1 Fc; HCVR/LCVR SEQ ID NOs: 34/42 (antibody, V domains shown)
VH: B3 VH with A33G, T56S, D57N, Q59H, G61A, A106G
VL: B1 VL with N30S, I31N, F46L, A50T, S53N, Q55L, T56S, E79Q, H90Q, R104K
B5: H3M9529N: anti-MUC16 hybridoma antibody, mIgG3; HCVR/LCVR SEQ ID NOs: 378/386 (antibody, V domains shown)
VH: QVQLQQWGAGLLKPSETLSLTCAVYGGSFSGFYWSWIRQPPGKGLEWIGEINHSGSAKYNPSLKNRVIISIDTSKNQFSLKLDSVTAADTAVYNCARQGWNFAIFDYWGQGTLVDVSS
VL: DIVMTQSPDSLAVSLGGRATINCKSSQSVLHSSYNKDHLAWYQQRPGQPPKLLIYWASTRESGVPDRFSGSGSGTDFTLTISSLQAEDVAVYYCQQYNILPPTFGQGTRVEIK
B6: H1H8808P: anti-MUC16 antibody, human IgG1 Fc; HCVR/LCVR SEQ ID NOs: 130/138 (antibody, V domains shown)
VH: QVQLVESGGGVVQPGRSLRLSCVASGFTFSNYGIHWVRQAPGKGLEWVAVISDDGSFKFYADSVKGRFTISRDNSKNTLYLQMNSLRVEDSAVYHCAKWQHNWNDGGFDYWGQGTLVTVSS
VL: EIVLTQSPDTLSLSPGERATLSCRASQSLSSNYLAWYRQKPGQAPRLLIYGISSRATGIPDRFSGSGSGTDFTLTISRLEPEDFAVYYCQQYGSSPWTFGQGTKVEIK
B7: H1M9528N: anti-MUC16 hybridoma antibody, mIgG1; HCVR/LCVR SEQ ID NOs: 234/242 (antibody, V domains shown)
VH: QMQLQESGPGLVKPSETLSLTCTVSGGSISSYYWNWIRQPPGKGLEWIGYIYYSGNNFNPSLKSRVTISVDTSKNQFSLKLSSVTAADTAVYYCARAFHWNYEFDYWGQGTLVTVSS
VL: EIVLTQSPGTLSLSPGERATLSCRASQSVSNNYLAWYQQKPGQAPRLLLYGASSRTTDIPDRFSGSGSGTDFTLTISRLEPEDFAVYYCQQYDNSPLTFGGGTKVEIR

Assays:
[1] = target: T1, soluble monomeric human MUC16 (hMUC16.mmh, last five SEA domains, SEQ ID: 1902) (Homo sapiens, UniProt Q8WXI7); test: Surface plasmon resonance (BIACORE) binding to hMUC16 fragment at 25° C.; design: key to ka / kd / KD / t 1/2: NB: No binding; settings: for ka / kd / KD / t 1/2: 25° C.; for binding to soluble truncated human MUC16 protein via surface plasmon resonance (in words): truncated format encompassing the last five SEA domains
T1 construct: mmh (myc-myc-hexahistidine)
T1 sequence (Q8WXI7 with tags, fused parts or gaps): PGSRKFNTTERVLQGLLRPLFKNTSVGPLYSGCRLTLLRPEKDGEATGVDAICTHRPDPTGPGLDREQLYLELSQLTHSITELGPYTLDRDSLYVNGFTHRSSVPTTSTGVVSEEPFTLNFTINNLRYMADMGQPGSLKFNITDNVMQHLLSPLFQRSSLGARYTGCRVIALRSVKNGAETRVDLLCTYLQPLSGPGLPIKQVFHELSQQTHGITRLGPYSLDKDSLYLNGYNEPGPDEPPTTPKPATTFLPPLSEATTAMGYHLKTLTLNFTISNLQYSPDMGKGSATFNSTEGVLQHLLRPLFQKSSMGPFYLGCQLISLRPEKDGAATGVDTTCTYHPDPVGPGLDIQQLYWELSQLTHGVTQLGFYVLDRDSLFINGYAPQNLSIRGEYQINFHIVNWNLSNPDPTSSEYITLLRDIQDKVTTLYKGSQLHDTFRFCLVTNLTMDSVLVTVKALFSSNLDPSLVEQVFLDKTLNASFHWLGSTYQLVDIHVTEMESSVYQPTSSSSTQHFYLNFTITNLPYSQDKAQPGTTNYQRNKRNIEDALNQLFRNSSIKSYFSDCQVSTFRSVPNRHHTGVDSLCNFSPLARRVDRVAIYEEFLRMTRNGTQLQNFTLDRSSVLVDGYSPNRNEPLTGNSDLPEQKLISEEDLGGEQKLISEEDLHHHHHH
Experimental: Antibodies were captured onto a CM4 or CM5 BIACORE sensor surface (GE Healthcare Life Sciences) derivatized via amine coupling with a monoclonal anti-human Fc antibody (GE, # BR-1008-39) or a monoclonal goat anti-mouse Fc antibody (GE, # BR-1008-38). Various concentrations of soluble monomeric human MUC16, in a truncated format encompassing the last five SEA domains of Mucin-16 (hMUC16.mmh, or MUC16 “nub”, SEQ ID: 1902) were injected over the anti-MUC16-antibody captured surface at a flow rate of 50 uL/minute (BIACORE T 200) or 30 uL/minute (BIACORE 4000). Antibody-reagent association was monitored for 4 min and the dissociation was monitored for 6-10 min. All binding studies were performed in HBS-ET buffer (0.01M HEPES pH 7.4, 0.15M NaCl, 0.05% v/v Surfactant P20).
Kinetic association (ka) and dissociation (kd) rate constants were determined by fitting the real-time sensorgrams to a 1:1 binding model using Scrubber 2.0c curve fitting software. Binding dissociation equilibrium constants (KD) and dissociative half-lives (t½) were calculated from the kinetic rate constants as: […]

[2] = target: T2, hMUC16 endogenously expressed on OVCAR-3 cell line (Homo sapiens, UniProt Q8WXI7); test: Electrochemiluminescence (MSD) cell binding, OVCAR-3 vs SK-OV-3; settings: cell-based binding assay
T2 construct: OVCAR-3 cells endogenously express MUC-16; endogenous in cells; host or cells: OVCAR-3 (also luciferase-transduced OVCAR3-Luc)
Experimental: The ability of anti-MUC16 antibodies to bind specifically to endogenously expressing MUC16 on the human ovarian carcinoma cell line (OVCAR-3) was evaluated via an electrochemiluminescence based detection assay (Meso Scale Discovery (MSD), Rockville, Md.). […] Detached cells were then washed once in 1×PBS supplemented with Ca^2+/Mg^2+ and counted (Cellometer Auto T4 cell counter, Nexcelom Bioscience, Lawrence, Mass.). Approximately 1.0×10^4 cells were plated in MULTI-ARRAY 96-well carbon electrode plates (MSD) and incubated for 1 h at 37° C. […] Next, serial dilutions of anti-MUC16 or control antibodies (0.85 pM-50 nM) and no-antibody buffer controls were added to the plate-bound cells and incubated for 1 h at room temperature (RT). […] Plate-bound antibodies were detected with a SULFO-TAG™-conjugated anti-human kappa light chain antibody (Regeneron) or a SULFO-TAG™-conjugated anti-mouse IgG antibody (Jackson Immunoresearch, West Grove, Pa.) for 1 h at RT. Post-wash, plates were developed with Read Buffer (MSD) according to manufacturer's protocol and luminescent signals were recorded with a SECTOR Imager 6000 (MSD) instrument.
Luminescence intensity, measured in relative light units (RLU), for the two cell lines was recorded to indicate the binding intensity of each antibody.

[3] = Human Fc anti-MUC16 antibodies (H1H), Table 5B
[4] = Hybridoma anti-MUC16 antibodies (H1M, H2M, H3M), Table 5A

Molecule | ka [1, 3] [M⁻¹ s⁻¹] | kd [1, 3] [s⁻¹] | ka [1, 4] | kd [1, 4] | specific binding to endogenous human MUC16 expressed on OVCAR-3 cells (in words) [2] | KD [1, 4] | t 1/2 [1, 4] | binding to soluble truncated human MUC16 protein via surface plasmon resonance (in words) [1]
B1 | 522000 | 0.000149 | – | – | – | – | – | –
B2 | – | – | 51000 M⁻¹ s⁻¹ | 0.000218 s⁻¹ | – | – | – | –
B3 | 174000 | 0.000107 | – | – | – | – | – | –
B4 | 247000 | 0.000308 | – | – | – | – | – | –
B5 | – | – | NB | NB | specific binding | NB | NB | no binding
B6 | 4120 | 0.000216 | – | – | – | – | – | –
B7 | – | – | NB | NB | specific binding | NB | NB | no binding
